Measurements as given in patent US8084228B2, “Nogo-B receptor antagonists” (Yale University, priority 2006, dated 2011).

T1: NgBR (Homo sapiens, UniProt Q96E22)
T1 sequence (Q96E22 1-293): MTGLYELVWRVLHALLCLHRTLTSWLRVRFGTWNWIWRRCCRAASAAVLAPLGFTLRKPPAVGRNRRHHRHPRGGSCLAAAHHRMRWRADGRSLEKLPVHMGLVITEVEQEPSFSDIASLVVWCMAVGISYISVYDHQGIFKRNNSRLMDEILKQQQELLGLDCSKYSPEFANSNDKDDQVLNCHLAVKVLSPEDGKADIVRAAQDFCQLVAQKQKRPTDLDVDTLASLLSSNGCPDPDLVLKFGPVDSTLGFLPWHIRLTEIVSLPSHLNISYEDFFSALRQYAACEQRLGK

T2: Nogo receptor (Homo sapiens, UniProt Q9BZR6)
T2 construct: expressed in transfected cells; host or cells: COS-7
T2 sequence (Q9BZR6 27-447): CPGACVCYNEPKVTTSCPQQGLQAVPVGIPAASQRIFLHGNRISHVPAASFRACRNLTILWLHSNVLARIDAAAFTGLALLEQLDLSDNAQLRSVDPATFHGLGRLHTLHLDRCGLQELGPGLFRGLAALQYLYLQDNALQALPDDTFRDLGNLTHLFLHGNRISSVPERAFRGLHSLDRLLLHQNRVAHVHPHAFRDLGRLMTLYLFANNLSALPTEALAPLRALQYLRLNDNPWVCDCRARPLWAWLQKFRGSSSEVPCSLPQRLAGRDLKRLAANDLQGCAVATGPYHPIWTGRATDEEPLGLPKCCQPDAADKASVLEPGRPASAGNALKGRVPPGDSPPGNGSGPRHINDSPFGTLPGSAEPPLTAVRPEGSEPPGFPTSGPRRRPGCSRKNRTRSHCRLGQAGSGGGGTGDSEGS


Experiments:
HUVEC [1] = experiment: AP-Am-Nogo-B binding to HUVEC after siRNA transfection; format: cell-based, human; settings: 72 hours after siRNA transfection
Procedure: (§1) To detect AP-Am-Nogo-B binding, cultures were washed with Hanks' balanced salt solution (HBSS) containing 20 mM HEPES, pH 7.5, and 1 mg/mL BSA (HBH). The plates were then incubated with AP-Am-Nogo-B in DMEM containing 20 mM Hepes, pH 7.5, and 1 mg/mL BSA for 2 hours at 4° C. The bound AP-Am-Nogo-B was detected by using the Blue Substrate kit (Vector Laboratories). The blue staining was examined by using the ODYSSEY Infrared Imaging System (Li-Cor, Lincoln, Nebr.) and confirmed by microscopy. Alternatively, the bound AP-Am-Nogo-B was extracted with Triton X-100, and AP activity was colorimetrically quantified by using p-nitrophenyl phosphate (Sigma) as substrate after heat inactivation of endogenous AP. Non-specific binding was determined by measuring binding in the presence of a 100-fold molar excess of recombinant Am-Nogo-B lacking the AP fusion protein. Specific binding was determined by subtracting the non-specific binding from total binding. For determination of apparent Kd, the binding of AP-Am-Nogo-B was measured in triplicate as described above and the Kd value was quantified by using the Scatchard plot program of GraphPad PRISM (one-site binding, linear regression) using the ratio of bound ligand to free ligand as the y axis and bound ligand (pM) as the x axis.
(§2) NgBR siRNA oligonucleotides (SEQ ID NOS:2-5) with 3′ dTdT overhangs were synthesized by Qiagen. Control siRNA in experiments refers to a nonsilencing (NS) siRNA (NS forward: UUCUCCGAACGUGUCACGU, SEQ ID NO:7; NS reverse: ACGUGACACGUUCGGAGAA, SEQ ID NO:8) designed and synthesized by Qiagen. HUVEC and CHO stable cell lines were transfected with siRNA by using Oligofectamine. Quantification of NgBR mRNA and protein, ligand binding assay, and migration assay were performed at 72 hours after transfection.

NgBR mRNA = NgBR mRNA by quantitative PCR after siRNA transfection of HUVEC; format: cell-based, human; settings: 72 hours after transfection, normalized to 18S
Procedure: as §2
Total RNA from cells was isolated by using the RNeasy kit (Qiagen). Reverse transcription was then performed by using 100 ng of RNA and the Superscript First-Strand Synthesis System kit (Invitrogen). Real-time PCR analysis was done with the iCycler iQ detection system using the iQ SYBR green Supermix kit (Bio-Rad). The NgBR mRNA level was normalized by housekeeping gene 18S. The following primers were used for NgBR: forward, 5′-[…]-3′ (SEQ ID NO:9) and reverse, 5′-[…]-3′ (SEQ ID NO:10). The following primers were used for 18S: forward, 5′-[…]-3′ (SEQ ID NO:11) and reverse, 5′-[…]-3′ (SEQ ID NO:12).

Endothelial cells = experiment: Am-Nogo-B-induced migration of endothelial cells, inhibition by NgBR ectodomain peptides or fusion protein; format: cell-based; settings: peptide 200 nM, Am-Nogo-B 100 nM
Procedure: (§3) Cell migration was examined in modified Boyden chambers using 10 nM each of purified recombinant AP, AP fusion of Nogo-66 (AP-Nogo-66) or Am-Nogo-B. The transwell inserts (Costar transwell inserts; Corning) were coated with a solution of 0.1% gelatin (Sigma) in PBS at 4° C. overnight and then air-dried. VEGF at 50 ng/mL (1.1 nM) or recombinant Am-Nogo-B at various concentrations dissolved in medium 199 containing 0.1% BSA was added in the bottom chamber of the Boyden apparatus. HUVEC (200,000 cells) suspended in a 100 μL aliquot of medium 199 containing 0.1% BSA was added to the upper chamber. After 5 hours incubation, cells on both sides of the membrane were fixed and stained with a Diff-Quik staining kit (Baxter Healthcare, Miami, Fla.). The average number of cells from five randomly chosen high-power (×400) fields on the lower side of the membrane was counted.
Endothelial cells were incubated with vehicle (control) of one of peptides P1-P4 (200 nM each) in the presence of Am-Nogo-B (100 nM).
Similarly, treatment of endothelial cells with mFc-ecto, but not mFc, blocked Am-Nogo-B-induced cell migration (FIG. 35).

NgBR [2] = target: T1, NgBR; experiment: AP fusion protein binding to CHO cells expressing NgBR; set-up: an isolated cDNA encoding NgBR is 2,636 base pairs encoding an open reading frame of 293 amino acids; expressed in transfected cells; settings: for surface binding of AP fusion domains to NgBR-expressing cells: CHO cells expressing NgBR (FIGS. 11, 14)
Procedure: as §1
A recombinant AP-Am-Nogo-B fusion protein was used to screen a cDNA expression library from human heart (500,000 independent clones) transfected into COS or CHO cells using Lipofectamine 2000 (Invitrogen). COS-7 cells were cultured in high-glucose DMEM with 10% FBS. CHO cells were cultured in MEM-α with 5% FBS.

HUVEC [3] = experiment: Binding of AP fusion proteins to the surface of HUVEC; set-up: species or system human; settings: HUVEC (FIGS. 12, 15)
Procedure: as §1

HUVEC [4] = experiment: HUVEC migration in modified Boyden chambers; format: cell-based, human; settings: 10 nM purified recombinant protein, 5 hours
Procedure: The migratory response of human umbilical vein endothelial cells (HUVEC) in response to a gradient of recombinant, purified alkaline phosphatase (AP) fusion protein expressing Am-Nogo-B or a recombinant purified Am-Nogo-B was examined. HUVEC were cultured in M199 with 20% FBS and endothelial cell growth supplement (ECGS).
as §3

Nogo receptor = target: T2, Nogo receptor; experiment: AP fusion protein binding to COS cells transfected with cDNA encoding the Nogo receptor; settings: COS cells (FIG. 6)
Procedure: as §1
(§4) For expression cloning of Am-Nogo-B receptor, pools of 5,000 arrayed clones from a human heart cDNA library (OriGene Technologies, Rockville, Md.) were transfected into COS-7 cells, and AP-Am-Nogo-B binding was assessed by using AP versus AP-Am-Nogo-B binding and detection of the AP product by near-infrared cell imaging (Li-Cor, Lincoln, Nebr.) or AP activity assays.

NgBR [5] = target: T1, NgBR; experiment: AP fusion protein binding to COS cells transfected with the isolated NgBR cDNA; set-up: an isolated cDNA encoding NgBR is 2,636 base pairs encoding an open reading frame of 293 amino acids; expressed in transfected cells; host or cells: COS-7 (A4); settings: COS cells (FIG. 6)
Procedure: as §1, §4
Single NgBR cDNA clones were isolated by sib selection and sequenced. […] The HA-tagged NgBR was immunoisolated with anti-HA immunobeads (Roche, Indianapolis, Ind.) and associated proteins analyzed by Western blotting. For the Western blots, expression of NgBR-HA was detected by using anti-HA (Roche) and NgBR (Imgenex), respectively, and beta-actin (Sigma) or Hsp90 (BD Biosciences-Pharmingen) was used to control for loading.

| surface binding of AP fusion domains to NgBR-expressing cells (NgBR [2]) | surface binding of AP fusion domains to HUVEC (HUVEC [3]) | Molecule | Am-Nogo-B-induced migration of endothelial cells in presence of peptide (Endothelial cells) | other results |
| --- | --- | --- | --- | --- |
| – | – | nonsilencing RNA: nonsilencing (NS) control siRNA by Qiagen; forward UUCUCCGAACGUGUCACGU (SEQ ID NO:7) (antisense ACGUGACACGUUCGGAGAA; listed as RNA, chemistry not given here) [reference compound] | – | binding of AP-Am-Nogo-B to HUVEC (HUVEC [1]): not; level of NgBR mRNA (NgBR mRNA): not |
| – | – | scrambled version of P2: scrambled P2 control PGRHLKPSRFNARLHGPCRVLRAHGPLTRG (SEQ ID NO: 17) (scrambled version of SEQ ID NO 14) [reference compound] | did not block | – |
| – | – | P2: NgBR ectodomain peptide LAPLGFTLRKPPAVGRNRRHHRHPRGGSCL (SEQ ID NO: 14) (listed as Homo sapiens) | effectively reduced | – |
| – | – | PP2: truncated version of P2, TLRKPPAVGRNRRHHRHPRG (SEQ ID NO: 18) (listed as Homo sapiens) | nearly identical to that of P2 | – |
| – | – | P4: NgBR ectodomain peptide ADGRSLEKLPVHMGLVITEVEQEPSFSD (SEQ ID NO: 16) (listed as Homo sapiens) | to a lesser extent | – |
| did | did | Ap-Nogo-B (61-200): AP fusion with amino acids 61-200 of Nogo-B (protein, left off: large carriers, AP fusion with amino acids 61-200 of Nogo-B) AGLSAAPVPTAPAAGAPLMDFGNDFVPPAPRGPLPAAPPVAPERQPSWDPSPVSSTVPAPSPLSAAAVSPSKLPEDDEPPARPPPPPPASVSPQAEPVWTPPAPAPAAPPSTPAAPKRRGSSGSVVVDLLYWRDIKKTGV | – | – |
| did not bind | did not bind | AP-Nogo-66: AP fusion of Nogo-66, a 66 amino acid residue loop in the RHD (protein, left off: large carriers, AP fusion of Nogo-66, a 66 amino acid residue loop in the RHD) RIYKGVIQAIQKSDEGHPFRAYLESEVAISEELVQKYSNSALGHVNCTIKELRRLFLVDDLVDSLK | – | HUVEC migration (HUVEC [4]): does not promote; binding to CHO cells stably expressing NgBR (NgBR [2]; increasing concentrations, 2 hours at 4° C.): not; binding to COS cells transfected with Nogo receptor cDNA (Nogo receptor): selectively bind; binding to COS cells transfected with the isolated NgBR cDNA (NgBR [5]): not |
| did not bind | did not bind | AP-Nogo-B (amino acids 1-180): AP fusion with amino acids 1-180 of Nogo-B (protein, left off: large carriers, AP fusion with amino acids 1-180 of Nogo-B) MEDLDQSPLVSSSDSPPRPQPAFKYQFVREPEDEEEEEEEEEEDEDEDLEELEVLERKPAAGLSAAPVPTAPAAGAPLMDFGNDFVPPAPRGPLPAAPPVAPERQPSWDPSPVSSTVPAPSPLSAAAVSPSKLPEDDEPPARPPPPPPASVSPQAEPVWTPPAPAPAAPPSTPAAPKRRG | – | – |
| did not bind | did not bind | AP-Nogo-A (59-172): AP fusion with biologically active domain 59-172 of Nogo-A (protein, left off: large carriers) PAAGLSAAPVPTAPAAGAPLMDFGNDFVPPAPRGPLPAAPPVAPERQPSWDPSPVSSTVPAPSPLSAAAVSPSKLPEDDEPPARPPPPPPASVSPQAEPVWTPPAPAPAAPPST | – | – |
